The labels stand for the following.
B3: Rsc8 (natural protein, yeast)
chain: MSDTEKDKDVPMVDSHEATEEPPTTSTNTPSFPHLAQEQAKEESATLGAEVAHKKINYEQEAQKLEEKALRFLAKQTHPVIIPSFASWFDISKIHEIEKRSNPDFFNDSSRFKTPKAYKDTRNFIINTYRLSPYEYLTITAVRRNVAMDVASIVKIHAFLEKWGLINYQIDPRTKPSLIGPSFTGHFQVVLDTPQGLKPFLPENVIKQEVEGGDGAEPQVKKEFPVNLTIKKNVYDSAQDFNALQDESRNSRQIHKVYICHTCGNESINVRYHNLRARDTNLCSRCFQEGHFGANFQSSDFIRLENNGNSVKKNWSDQEMLLLLEGIEMYEDQWEKIADHVGGHKRVEDCIEKFLSLPIEDNYIREVVGSTLNGKGGDSRDGSVSGSKLMECVNDAVQTLLQGDDKLGKVSDKSREISEKYIEESQAIIQELVKLTMEKLESKFTKLCDLETQLEMEKLKYVKESEKMLNDRLSLSKQILDLNKSLEELNVSKKLVLISEQVDSGIQLVEKDQEGDDEDGNTATGHGVKRVGKEGEEVGEGDSIAKLQPQVYKPWSL

Experiment in all cases: cryo-EM structure
The target in one data set is T1, Rsc7 (yeast, UniProt P32832 1-435).
T1 sequence: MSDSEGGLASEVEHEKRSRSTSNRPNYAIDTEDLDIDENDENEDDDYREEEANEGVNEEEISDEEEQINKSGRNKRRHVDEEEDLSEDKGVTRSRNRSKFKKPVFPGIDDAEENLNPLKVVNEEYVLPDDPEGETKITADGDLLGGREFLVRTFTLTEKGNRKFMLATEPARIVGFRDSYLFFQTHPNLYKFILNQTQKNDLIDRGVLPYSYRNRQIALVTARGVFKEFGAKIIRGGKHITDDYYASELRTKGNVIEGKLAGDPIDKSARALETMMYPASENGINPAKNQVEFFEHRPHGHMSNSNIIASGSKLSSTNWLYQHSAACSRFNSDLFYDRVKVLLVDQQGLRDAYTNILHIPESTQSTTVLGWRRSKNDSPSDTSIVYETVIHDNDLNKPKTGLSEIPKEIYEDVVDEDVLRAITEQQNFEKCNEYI

For the data set “Rsc8”, the target named is B3.
A further data set addresses T2, Rsc9 (yeast, UniProt Q03124 1-581).
T2 sequence: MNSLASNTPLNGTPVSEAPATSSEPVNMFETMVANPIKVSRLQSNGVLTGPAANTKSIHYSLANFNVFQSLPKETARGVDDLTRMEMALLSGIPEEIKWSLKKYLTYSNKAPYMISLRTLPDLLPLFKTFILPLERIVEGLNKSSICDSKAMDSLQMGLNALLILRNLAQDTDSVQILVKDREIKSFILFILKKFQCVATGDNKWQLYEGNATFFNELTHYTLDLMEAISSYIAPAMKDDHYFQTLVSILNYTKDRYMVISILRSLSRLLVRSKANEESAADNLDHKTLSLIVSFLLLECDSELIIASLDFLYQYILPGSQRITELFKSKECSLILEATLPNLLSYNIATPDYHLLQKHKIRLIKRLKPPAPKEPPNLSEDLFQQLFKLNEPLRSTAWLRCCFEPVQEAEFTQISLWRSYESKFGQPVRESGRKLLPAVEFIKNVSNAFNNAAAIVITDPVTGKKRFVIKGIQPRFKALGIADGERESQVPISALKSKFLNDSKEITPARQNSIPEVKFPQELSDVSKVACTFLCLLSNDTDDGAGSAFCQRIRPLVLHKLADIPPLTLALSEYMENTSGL

The next data set deals with T3, Rsc58 (yeast, UniProt Q07979 1-502).
T3 sequence: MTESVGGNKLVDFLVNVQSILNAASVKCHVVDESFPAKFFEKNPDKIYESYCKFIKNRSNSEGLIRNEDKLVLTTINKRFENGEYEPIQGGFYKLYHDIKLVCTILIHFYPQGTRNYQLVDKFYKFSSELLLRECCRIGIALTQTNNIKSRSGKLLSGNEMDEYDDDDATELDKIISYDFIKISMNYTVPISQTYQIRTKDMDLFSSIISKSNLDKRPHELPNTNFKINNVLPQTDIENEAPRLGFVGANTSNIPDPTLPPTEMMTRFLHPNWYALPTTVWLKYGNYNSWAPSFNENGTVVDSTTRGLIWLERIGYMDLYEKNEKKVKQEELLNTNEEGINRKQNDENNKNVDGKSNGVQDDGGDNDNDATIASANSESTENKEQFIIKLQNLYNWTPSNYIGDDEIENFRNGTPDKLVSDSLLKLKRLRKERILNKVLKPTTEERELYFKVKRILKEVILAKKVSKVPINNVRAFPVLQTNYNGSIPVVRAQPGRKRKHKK

For a further data set, the target named is T4, Sth1 (yeast, UniProt P32597 1-1359).
T4 sequence: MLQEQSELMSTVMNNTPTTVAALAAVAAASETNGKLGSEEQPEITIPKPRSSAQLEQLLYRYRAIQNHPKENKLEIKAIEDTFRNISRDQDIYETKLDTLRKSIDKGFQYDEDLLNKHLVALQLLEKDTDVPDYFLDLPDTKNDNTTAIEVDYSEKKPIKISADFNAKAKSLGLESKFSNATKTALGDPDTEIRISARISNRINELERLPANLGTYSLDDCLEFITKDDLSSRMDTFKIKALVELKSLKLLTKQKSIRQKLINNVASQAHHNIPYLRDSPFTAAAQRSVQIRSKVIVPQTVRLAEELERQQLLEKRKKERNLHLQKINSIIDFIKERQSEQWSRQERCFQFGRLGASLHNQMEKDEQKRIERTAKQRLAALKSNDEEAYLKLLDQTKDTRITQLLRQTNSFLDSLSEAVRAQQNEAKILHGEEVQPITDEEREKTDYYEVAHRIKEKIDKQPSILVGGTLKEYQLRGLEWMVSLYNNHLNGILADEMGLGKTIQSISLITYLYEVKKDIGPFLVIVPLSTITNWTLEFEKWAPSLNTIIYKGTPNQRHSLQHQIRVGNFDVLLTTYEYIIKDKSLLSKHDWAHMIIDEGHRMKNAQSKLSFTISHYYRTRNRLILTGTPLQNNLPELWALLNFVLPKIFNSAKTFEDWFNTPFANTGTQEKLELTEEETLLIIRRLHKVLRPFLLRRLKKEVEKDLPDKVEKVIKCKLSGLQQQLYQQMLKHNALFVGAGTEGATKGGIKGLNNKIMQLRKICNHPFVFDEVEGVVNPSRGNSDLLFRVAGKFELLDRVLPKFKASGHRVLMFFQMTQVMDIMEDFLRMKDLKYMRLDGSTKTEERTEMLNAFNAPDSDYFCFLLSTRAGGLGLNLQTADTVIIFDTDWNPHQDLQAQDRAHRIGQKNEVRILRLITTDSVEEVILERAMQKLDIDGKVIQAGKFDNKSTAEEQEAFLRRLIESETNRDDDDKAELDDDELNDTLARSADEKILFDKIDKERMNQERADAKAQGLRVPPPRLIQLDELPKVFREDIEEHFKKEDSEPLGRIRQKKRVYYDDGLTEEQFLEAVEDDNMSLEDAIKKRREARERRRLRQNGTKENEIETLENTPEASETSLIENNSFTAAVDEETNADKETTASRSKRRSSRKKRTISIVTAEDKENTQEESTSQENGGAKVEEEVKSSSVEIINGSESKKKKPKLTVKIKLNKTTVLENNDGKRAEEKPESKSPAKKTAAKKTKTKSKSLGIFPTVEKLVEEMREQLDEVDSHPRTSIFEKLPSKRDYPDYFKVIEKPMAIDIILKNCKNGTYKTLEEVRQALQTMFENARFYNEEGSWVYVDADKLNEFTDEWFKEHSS

The data set “cryo-EM structure” deals with the molecule itself.

B1: Sfh1 (natural protein, yeast)
chain: MSHQNQLIPQAYISNFHNRLTNEDDGIPIFTMAQQTRQHKRAKVVNYAEYDNDLFDEFNMNGSNFNNADTHYKDNAVSHENTPALTNGVTMDGSEYNVLENMNGADSIISNNKYDAGSNMVVESLSGLNSNNNASNGPSNKAQAQDIGNAVLPDLQDQHHNPFNILRYPKIRDTFINGKVVSPYRLNTDQETKANANSGEAIMIPITLDIEHMGHTIKDQFLWNYNDDSISPEEFASIYCKDLDMTSATLQTQIANIIKEQLKDLENIAATEIMSDLHVIINLTCNLQDRFFEDNFQWNLNDKSLTPERFATSIVQDLGLTREFIPLISQSLHETILKIKKDWVDGHLIQDHVPNDAAFGYLSGIRLDIDELGSNWCPRVEILTKEEIQKREIEKERNLRRLKRETDRLSRRGRRRLDDLETTMRM
Turning to B1, the binding result in the data set with Rsc7 is reported as “binds”.

B2: Rsc6 (natural protein, yeast)
chain: MVTQTNPVPVTYPTDAYIPTYLPDDKVSNLADLKKLIEMDSRLDLYLTRRRLDTSINLPTNTKTKDHPPNKEMLRIYVYNTTESSPRSDSGTPADSGKTTWTLRIEGKLLHESANGKHPFSEFLEGVAVDFKRLKPLGMGKKRKRDSSLSLPLNLQQPEYNDQDSTMGDNDNGEDEDSAEAESREEIVDALEWNYDENNVVEFDGIDIKRQGKDNLRCSITIQLRGVDGGKVQYSPNLATLIGMQTGSVNDAVYSIYKYILINNLFVTEQTEAQDGSNDAEDSSNENNNKNGAGDDDGVEGSTPKDKPELGEVKLDSLLQKVLDTNAAHLPLMNVVQTVNKLVSPLPPIILDYTIDLSKDTTYGATTLDVDVSHILHQPQPQPNLQKEEETDAEDTAKLREITKLALQLNSSAQKYQFFHELSLHPRETLTHYLWSSKQNELVLQGDQYFNEDAARTSDIYSNNNNDRSLMGNISLLYSQGRL
As to B2, the binding result with Rsc8, in the data set with Rsc9 and with Rsc58 was “binds” in each case.

On to B3, for which the binding result with Sth1 and in the data set “cryo-EM structure” was “binds” throughout.

The record behind these values is publication PMC8442553 (Science (New York, N.Y.), 2019).
